Columns and labels:
[1] = biological target: mKO-^MalFNTPBP2 (E. coli); assay: FRET or BRET; as the two-plasmid FRET, cells treated with mecillinam (2 mg/L) for two mass doublings
[2] = biological target: mKO-^MalFNTPBP2 (E. coli); assay: FRET or BRET; three-plasmid FRET in LMC500 cells; third plasmid expresses non-fused MreC
[3] = biological target: mKO-^MalFNTPBP2 (E. coli); assay: FRET or BRET; three-plasmid FRET in LMC500 cells; third plasmid expresses non-fused MreCD
[4] = biological target: mKO-^MalFNTPBP2 (E. coli); assay: FRET or BRET; two-plasmid spectral FRET in E. coli LMC500 cells; mCherry fusion as acceptor, mKO fusion as donor; Gb4 medium, steady state at 28 C, 15 uM IPTG for two mass doublings, FAGA-fixed; acceptor FRET efficiency (EfA) by spectral unmixing
[5] = biological target: mKO-^MalFNTPBP2 (E. coli); assay: FRET or BRET; three-plasmid FRET in LMC500 cells; third plasmid: empty pSG4K5 vector
[6] = biological target: mKO-^MalFNTPBP2 (E. coli); assay: FRET or BRET; two-plasmid FRET in LMC500 cells; mCherry-MreC and non-fused MreD co-expressed from one plasmid (mCh-MreCD), mKO fusion as donor

Substance	EfA (acceptor FRET efficiency) [1]	EfA (acceptor FRET efficiency) [2]	EfA (acceptor FRET efficiency) [3]	EfA (acceptor FRET efficiency) [4]	EfA (acceptor FRET efficiency) [5]	EfA (acceptor FRET efficiency) [6]
RodA (wild type), fused to mCherry or to mKO (from UniProt P0ABG7 1-370) (enzyme)	6.2%	4.2%	5.5%	11.8%	7.6%	–
mCh-MreC (from UniProt P16926 1-367) (natural protein)	–	–	–	5.4%	–	5.4%
PBP2 (wild type), fused to mKO or to mCherry (from UniProt P0AD65 1-633) (enzyme)	–	9.8%	8.7%	10.5%	9.4%	–
